Where a chain is given by its changes, count along the chain named.
Legend:
[1] = target: T1, Latrophilin-3 ADHD-related variant A247S (Lphn3^A247S) (human)
T1 chain: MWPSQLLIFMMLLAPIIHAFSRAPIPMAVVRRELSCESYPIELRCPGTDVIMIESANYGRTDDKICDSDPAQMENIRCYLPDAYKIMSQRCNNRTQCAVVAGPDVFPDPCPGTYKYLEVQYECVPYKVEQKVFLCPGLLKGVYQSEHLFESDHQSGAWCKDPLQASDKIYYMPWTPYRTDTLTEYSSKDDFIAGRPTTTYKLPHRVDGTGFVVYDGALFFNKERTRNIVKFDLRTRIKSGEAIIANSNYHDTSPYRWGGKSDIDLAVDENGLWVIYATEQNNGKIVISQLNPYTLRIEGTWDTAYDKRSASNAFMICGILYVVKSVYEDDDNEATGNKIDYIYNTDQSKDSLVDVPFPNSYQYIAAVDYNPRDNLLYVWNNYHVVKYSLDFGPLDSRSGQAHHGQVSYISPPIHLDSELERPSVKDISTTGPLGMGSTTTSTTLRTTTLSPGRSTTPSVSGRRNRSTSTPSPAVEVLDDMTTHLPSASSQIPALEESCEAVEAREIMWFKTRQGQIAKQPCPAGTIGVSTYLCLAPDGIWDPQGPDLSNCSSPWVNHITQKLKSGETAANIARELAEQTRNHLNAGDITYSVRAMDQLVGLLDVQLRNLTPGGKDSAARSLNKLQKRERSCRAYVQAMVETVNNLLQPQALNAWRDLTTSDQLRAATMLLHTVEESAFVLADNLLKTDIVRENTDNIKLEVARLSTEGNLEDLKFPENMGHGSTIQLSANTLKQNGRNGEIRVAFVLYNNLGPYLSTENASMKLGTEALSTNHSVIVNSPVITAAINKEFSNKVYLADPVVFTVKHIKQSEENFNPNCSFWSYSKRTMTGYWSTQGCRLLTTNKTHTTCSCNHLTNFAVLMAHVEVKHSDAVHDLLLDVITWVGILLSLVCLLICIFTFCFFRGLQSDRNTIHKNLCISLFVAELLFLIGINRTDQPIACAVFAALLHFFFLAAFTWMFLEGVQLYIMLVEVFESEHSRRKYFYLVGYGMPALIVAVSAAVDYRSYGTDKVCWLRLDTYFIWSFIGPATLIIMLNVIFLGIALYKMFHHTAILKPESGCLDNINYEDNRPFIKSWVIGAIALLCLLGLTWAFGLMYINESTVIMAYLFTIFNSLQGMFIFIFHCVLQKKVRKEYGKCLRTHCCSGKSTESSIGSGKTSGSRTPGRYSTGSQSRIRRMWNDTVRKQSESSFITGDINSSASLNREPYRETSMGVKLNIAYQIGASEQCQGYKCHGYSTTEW

[2] = target: T2, Latrophilin-3 ADHD-related variant R465S (Lphn3^R465S) (human)
T2 chain: T1 chain with S247A, R465S

- Kd [1]: 1.22 nM
- Kd [2]: 1.02 nM
B1: soluble FLRT3 extracellular domain fused to the constant fraction of human IgG (FLRT3^ECD-Fc) (Fc fusion)
chain: KSCPSVCRCDAGFIYCNDRFLTSIPTGIPEDATTLYLQNNQINNAGIPSDLKNLLKVERIYLYHNSLDEFPTNLPKYVKELHLQENNIRTITYDSLSKIPYLEELHLDDNSVSAVSIEEGAFRDSNYLRLLFLSRNHLSTIPWGLPRTIEELRLDDNRISTISSPSLQGLTSLKRLVLDGNLLNNHGLGDKVFFNLVNLTELSLVRNSLTAAPVNLPGTNLRKLYLQDNHINRVPPNAFSYLRQLYRLDMSNNNLSNLPQGIFDDLDNITQLILRNNPWYCGCKMKWVRDWLQSLPVKVNVRGLMCQAPEKVRGMAIKDLNAELFDCKDSGIVSTIQITTAIPNTVYPAQGQWPAPVTKQPDIKNPKLTKDHQTTGSPSRKTITITVKSVTSDTIHISWKLALPMTALRLSWLKLGHSPAFGSITETIVTGERSEYLVTALEPDSPYKVCMVPMETSNLYLFDETPVCIETETAPLRMYNPTTTLNREQEKEPYKNPNLP
modifications: HA/Flag epitopes left out; isoform assumed; signal peptide removed and GPS autoproteolysis expected

— PMC9135631 (2022)
